According to the DeepSol protein solubility set:

test: soluble on expression in E. coli; label from the status in PepcDB or PDB records

Sequence	soluble on expression in E. coli
MKFIVKPHPEIFVKSESVRKRFTKILECNIRNIVKSRTESVAVFNRRDHIEVTSESNEYHAEVLEILTHTPGIHHVLEVKQSEFKDLHDIYEQVLELSRPLIENKTFVVRAKRRGKHDFTSIELERYVGGGLNQAVESARVKLHNPDVTVKVEVSGDKLNQVLARHKGLGGFPLGTQEDVLSLISGGFDSGVSSYLHIKRGSKVHYCFFNLGGPAHEIGVKQVSHYLWNKYGSSAKVRFISVDFEPVVAEILEKVDDGQMGVILKRMFMRAAGMIAEKFKIEALVTGEALGQVSSQTLTNLRHIDNVTDTLILRPLINWDKEDIINLAREIGTEDFAKTMPEYCGVISKKPTVKAVKEKLEAEEAKFDFSILEKVVYEARQMDIRDIAKESEQAAPEVEQVQAVEEHAVVLDIRSPDEEDDNPLEIAGVDVKHIPFYKLGTQFGDLDQSKTYLLYCDRGVMSRLQALYLQEQGFNNVKVYRP	not soluble
MVRVDQNLFNEVMYLLDELSQDITVPKNVRKVAQDSKAKLSQENESLDLRCATVLSMLDEMANDPNVPAHGRTDLYTIISKLEALSKS	not soluble
MALQSSVRAFKKPPRPLVDEVRFLRSWIEKPLHMGAVMPSGKLLARTMARYVDIQSDGPVIELGPGTGAITNALVEHGVDQKRLVLLEFDPGFCALLRERFPLAKVVQGDAYRLRDSLWDALEIPATAVVSGLPLVTKPMLTRMKLIRDAFTLLEPGAPFVQFTYSVAPPIPKSLPGVSTEGSERIWMNVPPARVWVYRKRLEHHHHHH	not soluble
MGSDKIHHHHHHMSLILELKNISKHYPGVKALETVSLRLFSGEVHALLGENGAGKSTLVKVMTGAQSKDGGEIIFLNEKQHFNTPIEAQKIGISTVYQEVNLVPNLTVAQNLFLGHEPKRFGLIHFQKMYADARTVLTQFKLDIDVSAPLSSYSIAVQQLIAIARGVAMSAKVLVLDEPTASLDADEVQVLFGILNQLKQKGVAIVFITHFLDQVYQISDRITVLRNGRFIGEYLTSELPQPQLIEAMLGRSLQQHLVEKTSAEQTTNGTSAVLLSLEGVSVKGSIQSMNLTVPKGQAVGLAGLLGSGRSEVCNAVFGLDLLDSGSIHLAGKKLHLSHPVDAINAGIALCPEDRKVDGIIGPLSIRENIILALQARVGWWRCLSKTRQQEIAQFFIDKLQIATPDADKPIEQLSGGNQQKVILARWLAIEPILLVLDEPTRGIDIGAHAEIIKLIRTLCDDGMSLLVASSELDELVAFSNKVVVLRDRYAVRELSGSELTSQHVMQAIAEG	not soluble
SLEYNLTTKEVEMVNVTASWDEGIGELFEKVKQNDSERKMANGDDGLFFSNFSLHVTPVLKNISFKLEKGELLAIAGSTGSGKSSLLMMIMGELEPSDGKIKHSGRISYSPQVPWIMPGTIKDNIIFGLSYDEYRYTSVVNACQLEEDITVFPNKDKTVLGDGGITLSGGQRARISLARALYKDADLYLLDSPFSHLDVTTEKDIFESCLCKLMVNKTRILVTSKLEHLKKADKILLLHEGHCYFYGTFSELQGEKPDFSSQLLGSVHFDSFSAERRNSILTETFRRCSVSSGDGAGLGSEG	soluble
MGSDKIHHHHHHMGKARRGLQRGNGVHRHEAVRMFISLREIAPQGGLGPPRQLAGRRIAHVLDQAFRVALEVSARCHAVRVAHRVKSFVCTQQSRFVMGRQRLASMAHLRQNPPMAKLYFNYSTMNAGKSTLLLQASYNYIERGMQTYLLTANFDDRAGMGRIGSRIGIEAEADTYTQSDDLFAKIDARLKAGPCACVLVDEAQWMTRDQVWQLARAVDDLGVPVMCYGLRVDFRGELFPGSAALLALADEMREVRTICHCGRKATMVIRVGEDGNALAEGAQIEVGGNDRYISLCRKHFREAVGDVPV	not soluble
MAHHHHHHMKFAFVFPGQGSQSVGMLNAFADVAVVRETLDEASDALGQDIGKLIADGPADELNLTTNTQPVMLTAAYACYRAWQQAGGAQPSIVAGHSLGEYTALVAAGAIAFRDALPLVRFRAQAMQTAVPVGVGGMAAILGLDDDTVRAVCAEASATGVVEAVNFNAPAQVVIAGTKAGIEKACEIAKEKGAKRALPLPVSAPFHSSLLKPASDKLREYLAGVDVKAPKISVVNNIDVAVVSDPAAIKDALVRQAAGPVRWVECVQHIAREGVTHVIECGPGKVLAGLTKRIDGNLVGASVFDPASLDEALKLAAA	soluble
MHFETVIGLEVHVELKTDSKMFSPSPAHFGAEPNSNTNVIDLAYPGVLPVVNKRAVDWAMRAAMALNMEIATESKFDRKNYFYPDNPKAYQISQFDQPIGENGYIDIEVDGETKRIGITRLHMEEDAGKSTHKGEYSLVDLNRQGTPLIEIVSEPDIRSPKEAYAYLEKLRSIIQYTGVSDVKMEEGSLRCDANISLRPYGQEKFGTKAELKNLNSFNYVRKGLEYEEKRQEEELLNGGEIGQETRRFDESTGKTILMRVKEGSDDYRYFPEPDIVPLYIDDAWKERVRQTIPELPDERKAKYVNELGLPAYDAHVLTLTKEMSDFFESTIEHGADVKLTSNWLMGGVNEYLNKNQVELLDTKLTPENLAGMIKLIEDGTMSSKIAKKVFPELAAKGGNAKQIMEDNGLVQISDEATLLKFVNEALDNNEQSVEDYKNGKGKAMGFLVGQIMKASKGQANPQLVNQLLKQELDKRMAGDPLEHHHHHH	not soluble
MDCMRKLDRVDMQLVKILSENSRLTYRELADILNTTRQRIARRIDKLKKLGIIRKFTIIPDIDKLGYMYAIVLIKSKVPSDADKVISEISDIEYVKSVEKGVGRYNIIVRLLLPKDIKDAENLISEFLQRIKNAENVEVILISEVRKFEII	soluble
MDFSCGAASIATLLNNFYGRHYSEAEILDKMDKTQMRASFDDMQRIMPELGFEAQGYALPFEQLVQLKIPVIVYLKYRKNNHFSVLNGINGETVLLADPSLGHVSMSKSQFLSAWKTRDGEMEGKILAIVPKNTDFVRNQMFFNKNPVRQTRFTVEQIQMRQKR	not soluble
MNVVFAVKQYISKMIEDSGPGMKVLLMDKETTGIVSMVYTQSEILQKEVYLFERIDSQNREIMKHLKAICFLRPTKENVDYIIQELRRPKYTIYFIYFSNVISKSDVKSLAEADEQEVVAEVQEFYGDYIAVNPHLFSLNILGCCQGRNWDPAQLSRTTQGLTALLLSLKKCPMIRYQLSSEAAKRLAECVKQVITKEYELFEFRRTEVPPLLLILDRCDDAITPLLNQWTYQAMVHELLGINNNRIDLSRVPGISKDLREVVLSAENDEFYANNMYLNFAEIGSNIKNLMEDFQKKKPKEQQKLESIADMKAFVENYPQFKKMSGTVSKHVTVVGELSRLVSERNLLEVSEVEQELACQNDHSSALQNIKRLLQNPKVTEFDAARLVMLYALHYERHSSNSLPGLMMDLRNKGVSEKYRKLVSAVVEYGGKRVRGSDLFSPKDAVAITKQFLKGLKGVENVYTQHQPFLHETLDHLIKGRLKENLYPYLGPSTLRDRPQDIIVFVIGGATYEEALTVYNLNRTTPGVRIVLGGTTVHNTKSFLEEVLASGLHSRSKESSQVTSRSASRR	not soluble
IKDWTWKMGGNISYNKNKVVTLPDNGQPKNRIGGQQIYTGRKVLDEAGNQVDEVIFVGGKQEGQEPGILVGYKAEGLYKDWKDIPGDLVVKTGNYQGKYQYGPKAYAALSDAEKAKALQIEPGDVKWKDINNDGTIDAFDQIVIGNTTPHWFGGFNTTLTWKGLTLYGRFDFALDYWIYDNTTPWFLGCMQGGYNTTTDVFNTWSEENPNAKYPRYVWADQLGTANYYRTSTMFAYKGNYLAIREISLSYSLPQNIARKFYCQKLDVSVTGQNLGYITSANVATPEVSSAGSGYALPRTLLFGINVTF	not soluble
DEYLENLTDTPKHSKAYPIIKFEFTGRSVDAPLLSQASKKFGVELSILTSQIDYAGGVKFGYTIAEVEGDEDAITQTKVYLMENNVRVEVLGYVQ	not soluble
MASSVVFAATGSLSVPPLKSRRFYVNSSLDSDVSDMSVNAPKGLFPPEPVPYKGPKLKVAIIGAGLAGMSTAVELLDQGHEVDIYDSRTFIGGKVGSFVDRRGNHIEMGLHVFFGCYNNLFRLMKKVGAEKNLLVKDHTHTFINKDGTIGELDFRFPVGAPIHGIRAFLVTNQLKPYDKLRNSLALALSPVVKALVDPDGAMRDIRNLDSISFSDWFLSKGGTRASIQRMWDPVAYALGFIDCDNMSARCMLTIFSLFATKTEASLLRMLKGSPDVYLSGPIKQYITDRGGRIHLRWGCREILYDKSADGETYVTGLAISKATNKKIVKADVYVAACDVPGIKRLLPKEWRESRFFNDIYELEGVPVVTVQLRYNGWVTELQDIELARQLKRAVGLDNLLYTPDADFSCFADLALASPADYYIEGQGTLLQCVLTPGDPYMRMPNDKIIEKVAMQVTELFPSSRGLEVTWSSVVKIAQSLYREAPGKDPFRPDQKTPIKNFFLAGSYTKQDYIDSMEGATLSGRQASSYICDAGEELAELNKKLSSSATAVPDELSLV	not soluble
MGSDKIHHHHHHMKWNSNLYDHKHSFVAEYGKSMINFVNVGKDQKILDLGCGTGVLTNELAKNGATVIGTDLSKNMIDKAKTNYPNLIFQVKDATNLSFKNEFDTVFSNAVFHWISNQEKLLHSIYTCLKDNGTLICEFGAQNNISQIQTAFEKVIEQKGYSYCSPFFFPSKEEYKLLLDQAGFEVKHIIEYDRPTPLADGEKGLRNWICQFFASDLLEFSDEQKEQILFETEKLCKNSIWKNNQWVADYRRIQIIAVKNKNNGTK	not soluble
MGSSHHHHHHSSGLVPRGSHMLEDPMEQPINVLNDFHPLNEAGKILIKHPSLAERKDEDGIHWIKSQWDGKWYPEKFSDYLRLHKIVKIPNNSDKPELFQTYKDKNNKRSRYMGLPNLKRANIKTQWTREMVEEWKKCRDDIVYFAETYCAITHIDYGVIKVQLRDYQRDMLKIMSSKRMTVCNLSRQLGKTTVVAIFLAHFVCFNKDKAVGILAHKGSMSAEVLDRTKQAIELLPDFLQPGIVEWNKGSIELDNGSSIGAYASSPDAVRGNSFAMIYIEDCAFIPNFHDSWLAIQPVISSGRRSKIIITTTPNGLNHFYDIWTAAVEGKSGFEPYTAIWNSVKERLYNDEDIFDDGWQWSIQTINGSSLAQFRQEHTAAFEGTSGTLISGMKLAVMDFIEVTPDDHGFHQFKKPEPDRKYIATLDCSEGRGQDYHALHIIDVTDDVWEQVGVLHSNTISHLILPDIVMRYLVEYNECPVYIELNSTGVSVAKSLYMDLEYEGVICDSYTDLGMKQTKRTKAVGCSTLKDLIEKDKLIIHHRATIQEFRTFSEKGVSWAAEEGYHDDLVMSLVIFGWLSTQSKFIDYADKDD	soluble
MSLNPNYLDFEQPIADLEAKIQELHTASMGPSINVDTEVRALENKLRLRTAQIFRNLSAWQISQLARHPRRPYTLDYISVVCDEFQELAGDRALADDKAIVGGLARIGHRPVMLIGHQKGRDNKERLMRNFGMPKPEGYRKALRLMKLAERFGLPLLTFIDTMGAWPGIDAEERNQSEAIATNLIEMAELKIPVICTVIGEGGSGGALAIGIGDRTLMLEYSTYSVITPEGCASILWKDAAKASDAAEQLNLTARRLKEFGLIDKVIREPIGGAHRNPQQMANRLKAVLLNELEALDKVPLVTLLNQRHKRLRTYGAYENHEGHHHHHH	not soluble
MKISIVIVTYNRIPALCELLESISRQTLMPYEIIIVNDAGESVVPVKALYPELPIAVINLEKNSGHVAARNAGVKEASGDCIMLCDDDDFFTPGHIEKMAKEIETADFVHSDAEIVSFEEKNGTRYPVSRKLFAYTADYEDMRVFSTYVPSGSMYRRFLHDEIGYFDADVHNYWDWDFYLRAAKDYRVKRVPCASVIYAFSDAGDNQSADLGAKRKQYLDRLSEKHGLGELPTKNFAVLLEEPEMKRREAKSEMVWDGEPVYSRLHRSLEHHHHHH	not soluble
